Assay results reported in the DeepSol protein solubility set.

Experiment: soluble on expression in E. coli; label from the status in PepcDB or PDB records

| Sequence | soluble on expression in E. coli |
| --- | --- |
| MHRDSCPLDCKVYVGNLGNNGNKTELERAFGYYGPLRSVWVARNPPGFAFVEFEDPRDAADAVRELDGRTLCGCRVRVELSNGEKRSRNRGPPPSWGRRPRDDYRRRSPPPRRRSPRRRSFSRSRSRSLSRDRRRERSLSRERNHKPSRSFSRSRSRSRSNERK | soluble |
| MIKVLLLDVDGTLLSFETHKVSQSSIDALKKVHDSGIKIVIATGRAASDLHEIDAVPYDGVIALNGAECVLRDGSVIRKVAIPAQDFRKSMELAREFDFAVALELNEGVFVNRLTPTVEQIAGIVEHPVPPVVDIEEMFERKECCQLCFYFDEEAEQKVMPLLSGLSATRWHPLFADVNVAGTSKATGLSLFADYYRVKVSEIMACGDGGNDIPMLKAAGIGVAMGNASEKVQSVADFVTDTVDNSGLYKALKHFGVI | not soluble |
| MSLRLALRQVDGAALALRRCGEAWAGQDVRIAYPPSHGCWLKVAGADGSWQGWLQPRAWLRHMAPELASLASAAGMDDRLSELIAACEAPLSWPVADMPLGRIVAGERREGSQLPQRPMLRMDTPQGEVWLEKAPAPAEAARDRVPGWLPMPLRFLLGDSMVSPSLLRRAKAGDVLLISRPAQTVSCNGRAIGTYQWTEEGIIMEWQNEMAAAAETRPLADLDRLPVRLEFVLQQSEVTLDELRELCRSNVLPLSADAERRVELRANGALLGRGELVQLDGRLGVEVAQWLGGSGDVEEGHHHHHH | soluble |
| GSASAQSRTLAGGIHATDLNDKSVQRALDFAISEYNKVINKDEYYSRPLQVMAAYQQIVGGVNYYFNVKFGRTTCTKSQPNLDNCPFNDQPKLKEEEFCSFQINEVPWEDKISILNYKCRKV | soluble |
| SDPAGASVASAIGGEGEKFAVGNIYSVKVITGDEFRGIVMAYDPIPNFVFFEEGTKPRPGHLKNTRMVNASFITGLSYLGKTEDPFDSDNFSVDLNGLRAKEALAIRQAEADAERMGVGVTAEAQSIFDALSKTLPVQWENSDILVMKEVRVRSPYLSDCVFGGTDAANNRVKKVLELERRRLQLFGT | soluble |
| MQSLTTALENLLRHLSQEIPATPGIRVIDIPFPLKDAFDALSWLASQQTYPQFYWQQRNGDEEAVVLGAITRFTSLDQAQRFLRQHPEHADLRIWGLNAFDPSQGNLLLPRLEWRRCGGKATLRLTLFSESSLQHDAIQAKEFIATLVSIKPLPGLHLTTTREQHWPDKTGWTQLIELATKTIAEGELDKVVLARATDLHFASPVNAAAMMAASRRLNLNCYHFYMAFDGENAFLGSSPERLWRRRDKALRTEALAGTVANNPDDKQAQQLGEWLMADDKNQRENMLVVEDICQRLQADTQTLDVLPPQVLRLRKVQHLRRCIWTSLNKADDVICLHQLQPTAAVAGLPRDLARQFIARHEPFTREWYAGSAGYLSLQQSEFCVSLRSAKISGNVVRLYAGAGIVRGSDPEQEWQEIDNKAAGLRTLLQME | soluble |
| GAGTSTPTTGNQNMSGNSGSIVQNFYMQQYQNSIDADLGDNVISPEGQGSNTSSSTSSSQSSGLGGWFSSLLNLGTKLLADKKTEETTNIEDRIETTVVGVTIINSQGSVGTTYCYSKPDGRPPSTVSDPVTRLGPTLSRHYTFKVGEWPHSQSHGHAWICPLPGDKLKKMGSFHEVVKAHHLVKNGWDVVVQVNASFAHSGALCVAAVPEYEHTHEKALKWSELEEPAYTYQQLSVFPHQLLNLRTNSSVHLVMPYIGPGPTTNSALHNPWTIVVLILSELTGPGQTVPVTMSVAPIDAMVNGPLPNPEAPIRVVSVPESDSFMSSVPDNSTPLYPKVVVPPRQVPGRFTNFIDVAKQTYSFCSISGKPYFEVTNTSGDEPLFQMDVSLSAAELHGTYVASLSSFFAQYRGSLNFNFIFTGAAATKAKFLVAFVPPHSAAPKTRDEAMACIHAVWDVGLNSAFSFNVPYSSPADFMAVYSAEATVVNVSGWLQVYALTALTSTDIAVNSKGRVLVAVSAGPDFSLRHPVDLPDKQVTNVGEDGEPGETEPRYALSPVDMHVHTDVSFLLDRFFDVETLELSNLTGSPNTHVLNPFGSTAQLAWARLLNTCTYFFSDLELSIQFKFTTTPSSVGEGFVWVKWFPVGAPTKTTDAWQLEGGGNSVRIQQLAVAGMSPTVVFKIAGSRSQACGFSVPYTSMWRVVPVFYNGWGAPTKEKATYNWLPGAHFGSILLTSDAHDKGGCYLRYRFPRASMYCPRPIAPAFTRPADKTRHKFPTNINKQCTNYSLLKLAGDVESNPG | soluble |
| EMRNLGGGEILHACPQESLDKPLPCIVFYHGFTSSKLVYSYFAVALAEAGFRVIMPDAPEHGARYQGDEAGRMQRFWPILQQNFREFPALREAIIAEGWLEGERLAVAGASMGGMTALGIMTHHPELNSVACLMGSGYFRSLSQTLFPSPDFDVDSLNEWDVSHQLASLARRPLLLWHGDADDVVPPEETFRLEQALRQGDLAARLTCVWQKGVRHRITPEALATTVAFFQQHL | not soluble |
| MSELTSNRIRTTAAKLGLPHLAEALNQYVQRADEAKMGYLDFLDLVLAEELAVRDDRRFRNGLRLSKLPHHKTLEDYDFSFQPDLDPRKVKDLATLSFIEDKANVALLGPPGVGKTHIAVALAVAACRAGYSIYFTSLDDMVRHLKAAEDQGRLISKLTSYLRPAVLVVDEVGYQPLERAEANLVFQVISKRYEKGSIILTSNKTFGEWGQVFGDEVLATAILDRLLHHCEVVSINGNSYRLKNRLQAIERDTDVALEHHHHHH | soluble |
| MGSDKIHHHHHHMAMVVLGAGGGLGRAITLELSKQYPDERIFALSRQPEVPETDSSDVTYCRIEDYDEKALGAWVSEFKNNGEQLSGVVSTIGMLHDEETFPEKKLTDITADNLNKLFSVNAVKPMLALKAFLPILDRKKTRFWVQLSAKVGSIEDNYLGGWYAYRSSKAGLNMLLKTASIELKRTHKNLIVAAIHPGTTDTRLSEPFQERISTDKLYSPELSAERIVAVVKNLKPENTGALWHWDGSRLPY | not soluble |
| MFTIRKATSDDCKLINELANQVFPATYKEILSTEQLDYMMEWMYAPENIRKQMEEEGHVYFIAYQGDEPCGYVSVQPQDADVFHLQKIYVLPGFQGAHLGSKLFDHAVQYIKEIHPSPCLMELNVNRNNKALHFYEHKGMKKLREGDFPIGNGYYMNDYIMGLEL | not soluble |
| MWQQKSFQQNEKGVLYLVPTPIGNLEDMTFRAIRILKEADLIAAEDTRQTKKLCNYFEIETPVMSYHEHNKEVSGKKILEKLDEGKTVALVSDAGMPCISDPGYDIVVEAVAEQYHVIPLPGANAALTALIASGLQTKQFYFYGFLQRNKKERKMELEKLRYVQTTMMFYEAPHRLDDTLISMQEVLGNREIVLCRELTKKFEEFIRGTVEEAIEWTKQNEVRGEFCILVAGSTEEPAPEEQWWESISVYNHIEHYINEKGMNSKEAIKTVAKDRDLSKRDVYQIYHVDKK | soluble |
| MGSDKIHHHHHHMKRSGKVYIIGAGPGEEELITLKAIRKMKECTAVLYDRLVGQGILKYLNEKCEIYYCGKEPGCHYKTQDEINEMIIKLAKEGHIVGRIKGGDPYIFGRGGEEGLSLLKENIEFEVISGVTSPVAVLNYAGIPVTHRGIARSFHVFTAKTANDDSINFSAAAKIDGTLIFLMGYRQLNDITRKLIENGMDSKMPCAVVMRGTTSLQKKVIGNLSDIKEKCDNANMTSPCIIVVGKVVGFNQQLNWYEKKPLFGRNICITRSKNQSKTMREELLDLGAEVTEVHSIEIENTASNLEEYINKISEYDYIILTSVNAVEVLFDYLASKDYDVRKVRAKFAVIGNATKEALKKRGIVPEIVSRKHNGEGLFDEIRGYLKKDDKIFIPRSENSRKYIKEQLVSLGLSVDECFIYRTVPGKLYDKAAFENADTIVFTSPSTVKNMIALFGEKNIKKKSIIAIGPITGRELGKINAEYSTCSECSVDAIIRECLNSDK | not soluble |
| MRRLPPWMLGGASTGEAAARNGSQPEAPKTKAEKRPKRVQKTKEKDLNLKSDEPKRVPRKIREEAKRSPEVIQSVTVPEDDDLTVDDLLSFANEYVQRDEEGTRKERERSLSVSETTLVLDETNMTTSSQGGTKDSTAEDMLQLLMGPFYKKR | soluble |
| MGSDKIHHHHHHMEQLLHYVWKHKIFPLKELKTTTGQQVEVIDTGLANTDAGPDFFNAKLKLDGVLWIGNIEIHERSSDWFKHGHHADAGYNSVILHIASEIDTEISRSNGERIPQIQLICPEAVRTNYKELLETDSYPPCYRIIPSLPPFTAHSWMTALQMERFEQKATLLNERLKRCQGNWEDAFFITLARNFGFGLNGDAFETWAHRLPFRAVDKHRNDLFQIEAIFFGQAGILEDSDGDGYYLRLKKEYTYLQHKFGLIPMDASLWRFLRLRPANFPHIRIAQLACLYHRAYGLLSRIMETETLQGVRDILKGGTSEYWLTHYTFGGSSPSRPKTLSNTSLDLLIINTVVTFLYAYGLHKGNRVLCARAGCFLEELKAENNYITRMWEQCGMKASNAADSQALIQLKKEYCDKKKCLYCRIGYEYLKRS | not soluble |
| MGSDKIHHHHHHMHIDIDWQNVDTVLLDMDGTLLDLAFDNYFWQKLVPETYGAQQGISPQDAQEYIRQQYHAVQHTLNWYCLDYWSERLGLDICAMTTAQGPRAVLRDDTVPFLNALKASGKRRILLTNAHPHNLAVKLEHTGLASHLDLLLSTHTFGYPKEDQRLWRAVTEETGISAEKTLFIDDSEPILDAAARFGIRYCLGVTNPDSGLAEKHYTRHPSLNDYRRLIPSLM | not soluble |
| MGSDKIHHHHHHMTMPTNQCPWRMQVHHITQETPDVWTISLICHDYYPYRAGQYALVSVRNSAETLRAYTISSTPGVSEYITLTVRRIDDGVGSQWLTRDVKRGDYLWLSDAMGEFTCDDKAEDKFLLLAAGCGVTPIMSMRRWLAKNRPQADVRVIYNVRTPQDVIFADEWRNYPVTLVAENNVTEGFIAGRLTRELLAGVPDLASRTVMTCGPAPYMDWVEQEVKALGVTRFFKEKFFTPVAEAATSGLKFTKLQPAREFYAPVGTTLLEALESNNVPVVAACRAGVCGCCKTKVVSGEYTVSSTMTLTDAEIAEGYVLACSCHPQGDLVLA | not soluble |
| MGSDKIHHHHHHMSTPVLNLDPDTLLMSSKDARAAAAPYAAEYQGRGPFNYGGYDNFLNPEILERVREELKQLPEAANSYDRPQERLKTSYVPERLPMYTRQLFYALNSRPMLAFIEELTGIKGLIPDPYFAGGGVHVVANGGHLDIHADFNHHAGLNLERRVNLLIYLNKDWREEYGGSFEVWDENMAGKLASYVPLFNRMCMFSTSSESWHGNPEPVNHPDGEPRMSIALYYYTATWDSTRKSHTTLFKPRPGTKDQRDRQVARRELLQDLLPPVLHRKLAWRLEKLGF | not soluble |
| DDIDYANAEYYLGNTYDLVILDTVDNFQPINIGRLVDLARGGGLIIIYTNNLIKDKTFRTSIMRNGLILDEYEKRFKRKLYEHEGIFIIDVNEYIPKPFSGNTM | not soluble |
| MSLGSTTPISIFELVTRLENDSQVANDTKHLFFSGENIGYSEMIGRRPNMEDAIVIRENFREKLHIAAVFDGHSGHSVARSCAASLPDLLRNDETINSDAIKKHLDHINHVLLSSNDLAGSTMQFAIIDMNNNHLTIMQLGDSRSVVYKNDGRVTFYTQEMRPERRSELARLREDRIRLKRLRTGGMLACSTSIGDFQVKGISHEPEVIEMDISDDDRWIVIACDGLWDDVNNESAAKILLDSESPHVAATLLRDLAFQRGSEDNISVIVVDLDLLRNEGHHHHHH | soluble |
| MGHHHHHHGGHMSLKNYFLQRRTLMTEQLPNCPECGSAYAYEDRGLFICPECGHEWSPTEEVAEEGLVVKDSNGNLLADGDSVTVIKDLKVKGASGAIKQGTKVKNIRLVEGDHNIDCKVDGFGPMKLKSEFVKKNEGGS | soluble |
